Assay results reported in PMC2532732.

Assays:
Assay in all cases: EMSA
p63 DBD = molecular target: T1, p63 DBD (UniProt Q9H3D4 154-365)
T1 sequence: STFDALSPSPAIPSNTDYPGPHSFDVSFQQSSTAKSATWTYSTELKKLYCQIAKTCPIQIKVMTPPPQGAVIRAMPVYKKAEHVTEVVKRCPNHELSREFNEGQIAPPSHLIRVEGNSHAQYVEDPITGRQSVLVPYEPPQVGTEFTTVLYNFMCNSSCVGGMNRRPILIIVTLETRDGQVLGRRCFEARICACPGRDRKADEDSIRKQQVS

p53 DBD = p53 DBD (UniProt P04637 94-312)
p73 DBD = molecular target: T2, p73 DBD (UniProt O15350 104-333)
T2 sequence: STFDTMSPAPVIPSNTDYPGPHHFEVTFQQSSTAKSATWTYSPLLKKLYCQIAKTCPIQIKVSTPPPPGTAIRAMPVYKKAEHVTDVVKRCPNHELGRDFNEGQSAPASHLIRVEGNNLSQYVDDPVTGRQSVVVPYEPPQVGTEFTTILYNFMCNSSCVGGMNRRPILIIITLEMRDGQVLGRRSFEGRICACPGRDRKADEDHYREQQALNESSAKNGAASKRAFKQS

Measured: binding result

p53 DBD, sequence (P04637 94-312): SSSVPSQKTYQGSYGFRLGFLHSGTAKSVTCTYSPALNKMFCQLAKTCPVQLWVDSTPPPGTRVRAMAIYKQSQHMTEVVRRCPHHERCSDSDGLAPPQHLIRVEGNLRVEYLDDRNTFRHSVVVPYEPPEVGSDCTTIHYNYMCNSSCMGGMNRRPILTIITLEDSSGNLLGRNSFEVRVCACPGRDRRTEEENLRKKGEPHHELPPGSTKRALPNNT

B1: Bax promoter 30-mer (dsDNA)
DNA 1: GGGCTCACAAGTTAGAGACAAGCCTGGGCG
DNA 2: CGCCCAGGCTTGTCTCTAACTTGTGAGCCC
binds: all assays above

B2: PUMA promoter 30-mer (dsDNA)
DNA 1: CGCGCCTGCAAGTCCTGACTTGTCCGCGGC
DNA 2: GCCGCGGACAAGTCAGGACTTGCAGGCGCG
binds: all assays above
